Values quoted from earlier work, collected in paper PMC8295177 (Cancer discovery, 2021).
Where two headings read alike, the source gives them in different places.

System: NSCLC with EGFRex20ins mutations
Details: cited from earlier work
[1] = 39 response-evaluable patients with advanced NSCLC and EGFRex20ins mutations, phase 1

B1: amivantamab: an intravenous bispecific antibody that targets EGFR and MET (antibody, chains of the INN, looked up, V domains shown)
VH: QVQLVESGGGVVQPGRSLRLSCAASGFTFSTYGMHWVRQAPGKGLEWVAVIWDDGSYKYYGDSVKGRFTISRDNSKNTLYLQMNSLRAEDTAVYYCARDGITMVRGVMKDYFDYWGQGTLVTVSS
VL: AIQLTQSPSSLSASVGDRVTITCRASQDISSALVWYQQKPGKAPKLLIYDASSLESGVPSRFSGSESGTDFTLTISSLQPEDFATYYCQQFNSYPLTFGGGTKVEIK
VH2: QVQLVQSGAEVKKPGASVKVSCETSGYTFTSYGISWVRQAPGHGLEWMGWISAYNGYTNYAQKLQGRVTMTTDTSTSTAYMELRSLRSDDTAVYYCARDLRGTNYFDYWGQGTLVTVSS
VL2: DIQMTQSPSSVSASVGDRVTITCRASQGISNWLAWFQHKPGKAPKLLIYAASSLLSGVPSRFSGSGSGTDFTLTISSLQPEDFATYYCQQANSFPITFGQGTRLEIK
investigator-assessed response rate (ORR) [1]: 36% | median PFS [1]: 8.3 months | median PFS (patients with NSCLC with EGFRex20ins and other EGFR mutations): 8.3
